Experimental data taken from patent US20230270832A1, “MAGEA1 IMMUNOGENIC PEPTIDES, BINDING PROTEINS RECOGNIZING MAGEA1 IMMUNOGENIC PEPTIDES, AND USES THEREOF” (TScan Therapeutics, Inc., priority 2021, published 2023).

Experiments:
[1] = test system: cancer cells that express MAGEA1; assay: T cell recognition assay on cancer cell lines; type: cell-based, human; settings: IFNγ release, CD137/CD69 double-positive staining
Experimental: To detect reactivity to cancer cell lines, wild-type cancer cell lines were seeded in a 96-well flat bottom plate and rested overnight at 37° C. in 5% CO2. On the following day, T cells were thawed, washed in complete RPMI-1640 medium, and added to the wells for an effector to target (E:T) ratio of 1:1 for INFγ measurement or 1:4 for flow cytometry analysis of activation-induced markers. The co-culture was incubated overnight. Cells were then harvested by pipetting, transferred to V-bottom 96-well plates, and centrifuged at 2,000 rpm for 2 minutes. The supernatant was collected for IFNγ measurement using a human IFNγ 3rd generation single-plex assay (Protein Simple). For flow cytometry analysis (Cytoflex S™ instrument, Beckman Coulter), cell pellets were washed with FACS buffer (PBS, 0.5% BSA, 2 mM EDTA) and stained for activation-induced markers, including PE-conjugated anti-CD137 (Miltenyi), AF647-conjugated anti-CD69 (Biolegend), and BV421-conjugated anti-CD8 (BioLegend).
Cancer cell lines were purchased from ATCC (Manassas, Vα.) and HEK293T cells were originally from Takara Bio (Shiga, Japan). All media were supplemented with […], except U266B1 which required 15% FBS, and 1% penicillin and incubated at 37° C. in 5% CO2. A101D (high MAGE-A1 expresing cells; TPM: 359), A2058 (medium MAGE-A1 expresing cells; TPM: 128), HS294T, and HEK293T cells were maintained in complete DMEM. SK-MEL-5 was cultured in complete EMEM, whereas U266B1, NCIH1437 and 786-0 required complete RPMI. Untransduced cancer cells were maintained in preparation for the T cell recognition assay, and 10^6 cells of each cell line were introduced with Incucyte® NucLight™ Red lentivirus reagent (Sartorius, Gottingen, Germany) Positively-labeled cells were selected using 1.5 ug/mL of puromycin over 72 hours.

[2] = molecular target: T1, epitope from MAGEA1 presented by HLA C*07:02 (Homo sapiens, UniProt P10321+P43355, DEL298-309); assay: Identification of MAGEA1-reactive TCRs from pool of TCR-transduced T cells (CD137/CD69 sorting, TCR sequencing); type: cell-based; settings: target cells transduced with MAGEA1 90-mer
T1 construct: an individual 90-amino acid fragments representing the top-scoring MAGEA1 tile from the screen; expressed in transfected cells; host or cells: MHC monoallelic C*07:02 HEK293T cells, lentivirally transduced with the MAGEA1 90-mer
From the text: Ten orphan TCRs from this patient were pooled together to identify their cognate antigens using the genome-wide TargetScan technology. This screen identified MAGEA1 as a novel target. […] Note that the term “TCR32-39” may also be known as “TCR39” and the term “TCR32-41” may also be known as “TCR41”.
To identify the corresponding TCR from the pool of TCR-transduced T cells, Ml-IC monoallelic C*07:02 HEK293T cells engineered to express the MAGEA1 90mer were co-cultured with the pool of T cells at an E:T ratio of 1:1 for 16-24 hours. The T cells were mixed, collected by pipetting, and labeled with a CD137 microbead kit (Miltenyi) following the manufacturer's instructions. In brief, T cells were first stained with PE-labeled anti-CD137 and AF647-labeled anti-CD69 (BioLegend), washed, and then labeled with anti-PE microbeads. Labeled cells were enriched with an autoMACS® Pro separator (Miltenyi) and CD137 and CD69 double-positive cells were sorted on a MoFlo® Astrios™ Cell Sorter (Beckman Coulter). Genomic DNA was extracted from the sorted cells and the TCR expression cassette was PCR amplified and prepared for next generation sequencing (NGS).

- recognition of MAGEA1 epitope / identification as MAGEA1-reactive TCR ([2]; listed as TCR 39): hits
B1: TCR 32-39: T cell receptor recognizing MAGEA1 epitope presented by HLA-C*07:02; alpha TRAV29-DV5/TRAJ43, beta TRBV18/TRBJ2-7; wild type, HM and MGTM sequences listed (protein)
TCR alpha: DQQVKQNSPSLSVQEGRISILNCDYTNSMFDYFLWYKKYPAEGPTFLISISSIKDKNEDGRFTVFLNKSAKHLSLHIVPSQPGDSAVYFCAASAQNNDMRFGAGTRLTVKPNIQNPEPAVYQLKDPRSQDSTLCLFTDFDSQINVPKTMESGTFITDKCVLDMKAMDSKSNGAIAWSNQTSFTCQDIFKETNATYPSSDVPCDATLTEKSFETDMNLNFQNLLVMVLRILLLKVAGFNLLMTLRLWSS
TCR beta: NAGVMQNPRHLVRRRGQEARLRCSPMKGHSHVYWYRQLPEEGLKFMVYLQKENIIDESGMPKERFSAEFPKEGPSILRIQQVVRGDSAAYFCASSPSYEQYFGPGTRLTVTEDLRNVTPPKVSLFEPSKAEIANKQKATLVCLARGFFPDHVELSWWVNGKEVHSGVCTDPQAYKESNYSYCLSSRLRVSATFWHNPRNHFRCQVQFHGLSEEDKWPEGSPKPVTQNISAEAWGRADCGITSASYQQGVLSATILYEILLGKATLYAVLVSTLVVMAMVKRKNS
- recognition of cancer cells [1]: recognize cancer cells that express MAGEA1
- recognition of cancer cells ([1]; listed as TCR 39): recognize
- recognition of MAGEA1 epitope / identification as MAGEA1-reactive TCR ([2]; listed as HN-32-39): recognizing the same novel epitope from MAGEA1 presented by HLA C*07:02
